From paper PMC1751550

Molecular target: full length Brn-3b GST fusion protein (UniProt Q63934)
Experiment: pull-down

UniProt Q63934, sequence (Q63934 whole entry, the tested form may be a part): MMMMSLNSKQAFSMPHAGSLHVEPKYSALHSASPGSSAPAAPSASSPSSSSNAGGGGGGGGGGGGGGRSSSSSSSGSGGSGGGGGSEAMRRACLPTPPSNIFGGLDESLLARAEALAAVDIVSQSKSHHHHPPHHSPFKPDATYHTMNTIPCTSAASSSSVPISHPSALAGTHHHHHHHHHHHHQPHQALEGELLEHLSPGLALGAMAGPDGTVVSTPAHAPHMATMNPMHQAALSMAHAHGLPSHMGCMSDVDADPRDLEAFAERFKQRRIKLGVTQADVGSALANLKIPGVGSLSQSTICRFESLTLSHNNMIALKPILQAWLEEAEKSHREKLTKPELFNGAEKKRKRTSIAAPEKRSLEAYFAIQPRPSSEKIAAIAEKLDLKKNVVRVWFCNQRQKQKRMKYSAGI

in vitro translated estrogen receptor (from UniProt P03372 1-595)
percent of input retained: 15.2 % of input
